The results in this text go back to patent EP4582451A1 (Changchun Genescience Pharmaceutical Co., Ltd., dated 2025).

Positions count from the first letter of the chain named. Like-named read-outs stand apart in the source and are kept apart here.

For assay [1], the target named is T1, human thyroid-stimulating hormone receptor (TSHR) (human, UniProt P16473 21-764).
T1 construct: whole, on cells; Overexpressed on 293 cells; also called human TSHR
The assay is described as follows: flow cytometry (FACS), 293 cells overexpressing human TSHR. On the technique in general: A flow cytometer gives signals particle by particle.

For assay [2], the target named is T2, mouse thyroid-stimulating hormone receptor (TSHR) (mouse, UniProt P47750 22-764).
T2 construct: whole, on cells; Overexpressed on 293 cells; also called mouse TSHR; murine TSHR
T2 sequence (P47750 22-764): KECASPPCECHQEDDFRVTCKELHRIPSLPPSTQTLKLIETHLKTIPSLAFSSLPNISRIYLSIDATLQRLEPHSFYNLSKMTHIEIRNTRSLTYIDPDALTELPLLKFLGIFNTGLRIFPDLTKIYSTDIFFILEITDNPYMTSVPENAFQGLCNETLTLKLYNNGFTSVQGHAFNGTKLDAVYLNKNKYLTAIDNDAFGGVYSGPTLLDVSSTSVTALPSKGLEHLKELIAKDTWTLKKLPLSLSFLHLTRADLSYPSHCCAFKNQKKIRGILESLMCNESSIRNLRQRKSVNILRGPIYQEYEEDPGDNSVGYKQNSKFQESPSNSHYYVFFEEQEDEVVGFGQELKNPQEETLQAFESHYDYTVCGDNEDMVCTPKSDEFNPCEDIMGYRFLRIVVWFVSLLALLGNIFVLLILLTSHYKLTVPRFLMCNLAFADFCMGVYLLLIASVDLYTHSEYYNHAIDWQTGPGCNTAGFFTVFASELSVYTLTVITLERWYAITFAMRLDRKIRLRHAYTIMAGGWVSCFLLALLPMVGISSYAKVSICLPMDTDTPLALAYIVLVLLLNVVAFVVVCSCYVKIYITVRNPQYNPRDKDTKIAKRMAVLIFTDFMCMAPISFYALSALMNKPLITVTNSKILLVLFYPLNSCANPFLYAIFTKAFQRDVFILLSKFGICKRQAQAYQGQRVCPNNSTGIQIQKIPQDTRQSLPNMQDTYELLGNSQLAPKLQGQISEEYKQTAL
The assay is described as follows: flow cytometry (FACS), 293 cells overexpressing mouse TSHR.

Assay [3] addresses T3, monkey thyroid-stimulating hormone receptor (TSHR) (monkey, UniProt A0A2K5X226 21-764).
T3 construct: Overexpressed on 293 cells; also called monkey TSHR
Kind of assay: flow cytometry (FACS), 293 cells overexpressing monkey TSHR.

The target of assay [4] is T1, human thyroid-stimulating hormone …. The assay is described as follows: flow cytometry (FACS), 293 cells overexpressing human TSHR. This is another data set of the same source.
The target of assay [5] is T2, mouse thyroid-stimulating hormone …. The assay is described as follows: flow cytometry (FACS), 293 cells overexpressing mouse TSHR. This is another data set of the same source.
Assay [6] deals with T3, monkey thyroid-stimulating hormone …. The assay is described as follows: flow cytometry (FACS), 293 cells overexpressing monkey TSHR. This is another data set of the same source.
Assay [7] concerns the target T1, human thyroid-stimulating hormone …. The assay is described as follows: cell-based or functional assay.
Assay [8] shares this target. Kind of assay: flow cytometry (FACS), 293 cells overexpressing human TSHR. The source holds these as a separate data set.
The target of assay [9] is T2, mouse thyroid-stimulating hormone …. Kind of assay: flow cytometry (FACS), 293 cells overexpressing mouse TSHR. This is another data set of the same source.
Assay [10] has as its target T3, monkey thyroid-stimulating hormone …. Kind of assay: flow cytometry (FACS), 293 cells overexpressing monkey TSHR. The source holds these as a separate data set.
Assay [11] has as its target T4, hFcRn-Avi (Biosystems, FCM-H82W7) (human (printed as hFcRn), UniProt P55899 24-297; P61769 21-119, biotin on the Avi tag is implied by capture on an SA chip).
T4 construct: Bought reagent
The assay is described as follows: SPR (Biacore 8K+), hFcRn-Avi captured on SA chip, antibody in flow, pH 6.0, 25 C, steady-state fit. On the technique in general: In SPR one partner is held on a chip, and binding of the other changes the refractive index at the surface.

Assay [12] has as its target T1, human thyroid-stimulating hormone …. The assay is described as follows: cell-based or functional assay. This is another data set of the same source.
Assay [13] has as its target T2, mouse thyroid-stimulating hormone …. The assay is described as follows: flow cytometry (FACS), 293 cells overexpressing mouse TSHR. This is another data set of the same source.
The target of assay [14] is T3, monkey thyroid-stimulating hormone …. The assay is described as follows: flow cytometry (FACS), 293 cells overexpressing monkey TSHR. This is another data set of the same source.

T4 sequence (P55899 24-297 limits assumed, chain 1 of 2): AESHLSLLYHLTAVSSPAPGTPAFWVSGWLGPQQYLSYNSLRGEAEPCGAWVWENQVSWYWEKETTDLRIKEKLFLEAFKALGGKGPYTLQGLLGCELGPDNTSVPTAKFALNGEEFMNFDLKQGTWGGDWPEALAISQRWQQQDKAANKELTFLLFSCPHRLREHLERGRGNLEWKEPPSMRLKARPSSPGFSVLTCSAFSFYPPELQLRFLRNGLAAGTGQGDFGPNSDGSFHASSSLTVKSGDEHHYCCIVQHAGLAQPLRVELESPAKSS
T4 sequence (P61769 21-119 limits assumed, chain 2 of 2): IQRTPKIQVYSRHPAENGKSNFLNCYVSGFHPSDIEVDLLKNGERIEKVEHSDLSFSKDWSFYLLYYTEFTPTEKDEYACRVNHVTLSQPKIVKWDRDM
T1 sequence (P16473 21-764): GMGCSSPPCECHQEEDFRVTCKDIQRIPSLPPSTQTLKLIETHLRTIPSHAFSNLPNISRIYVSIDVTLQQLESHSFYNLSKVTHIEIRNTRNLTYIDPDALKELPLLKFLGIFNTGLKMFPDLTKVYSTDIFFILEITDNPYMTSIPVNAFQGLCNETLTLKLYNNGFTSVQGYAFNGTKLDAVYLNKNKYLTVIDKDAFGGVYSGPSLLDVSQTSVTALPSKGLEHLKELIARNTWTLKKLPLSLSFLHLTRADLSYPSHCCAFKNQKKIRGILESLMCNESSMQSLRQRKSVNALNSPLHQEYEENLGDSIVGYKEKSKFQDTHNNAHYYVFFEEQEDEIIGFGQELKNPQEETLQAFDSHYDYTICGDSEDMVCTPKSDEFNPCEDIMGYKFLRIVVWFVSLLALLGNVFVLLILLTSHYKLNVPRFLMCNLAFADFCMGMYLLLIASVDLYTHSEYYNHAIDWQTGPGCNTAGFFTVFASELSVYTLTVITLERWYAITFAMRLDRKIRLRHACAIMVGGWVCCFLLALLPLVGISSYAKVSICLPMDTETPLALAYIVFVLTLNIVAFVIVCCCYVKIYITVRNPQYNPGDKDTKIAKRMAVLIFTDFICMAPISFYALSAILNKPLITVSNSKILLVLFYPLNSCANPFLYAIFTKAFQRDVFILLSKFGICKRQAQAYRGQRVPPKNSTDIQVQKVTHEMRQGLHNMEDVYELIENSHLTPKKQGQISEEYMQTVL
T3 sequence (A0A2K5X226 entry or part of it limits assumed, form in doubt): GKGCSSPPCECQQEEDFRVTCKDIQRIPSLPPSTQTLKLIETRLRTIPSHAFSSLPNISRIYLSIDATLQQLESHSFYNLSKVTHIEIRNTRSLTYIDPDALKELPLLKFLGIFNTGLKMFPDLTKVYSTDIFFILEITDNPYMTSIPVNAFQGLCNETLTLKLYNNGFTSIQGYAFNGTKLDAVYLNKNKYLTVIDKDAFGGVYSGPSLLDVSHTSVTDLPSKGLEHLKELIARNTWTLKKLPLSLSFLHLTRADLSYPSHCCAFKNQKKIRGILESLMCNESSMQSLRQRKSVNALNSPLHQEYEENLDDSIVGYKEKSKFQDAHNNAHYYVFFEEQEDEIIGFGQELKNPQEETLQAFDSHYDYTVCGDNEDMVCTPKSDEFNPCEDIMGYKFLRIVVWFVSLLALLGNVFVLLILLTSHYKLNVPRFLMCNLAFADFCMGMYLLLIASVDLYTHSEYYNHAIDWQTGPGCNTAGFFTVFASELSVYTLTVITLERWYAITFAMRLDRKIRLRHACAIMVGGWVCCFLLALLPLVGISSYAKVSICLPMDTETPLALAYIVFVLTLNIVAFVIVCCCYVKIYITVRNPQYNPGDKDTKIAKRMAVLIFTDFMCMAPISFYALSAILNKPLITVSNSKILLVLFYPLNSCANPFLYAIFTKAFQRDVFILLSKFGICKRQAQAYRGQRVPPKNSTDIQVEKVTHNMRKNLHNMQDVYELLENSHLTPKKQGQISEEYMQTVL

B1: murine antibody mAb001 (antibody, V domains shown)
VH: EVQLVESGGGLVKPGGSLKLSCAASGFTLSDYYIYWVRQTPEKRLEWVATISDGVIYTYYADSVKGRFTISRDNAKNNLYLQMSSLKSEDTAMYFCARAYGSSEVMDYWGQGTSVTVSS
VL: QIVLTQSPAVLSASPGEKVTMTCSASSSVSYMHWYQQKSGTSPKRWIYDTSKLASGVPARFSGSGSGTSYSLTISSMEAEDAATYYCQQWSSNPWTFGGGTKLEIK
notes: Murine monoclonal antibody from hybridoma
The EC50 is the concentration giving half of the maximal effect. Consider B1, for which the EC50 was found to be 1.28 nM in assay [1], 2.52 nM in [2] and 0.98 nM in assay [3]. Besides, the Maximum binding signal in assay [1] stood at 21000; in assay [2], 11800; in assay [3], 13600.

B2: murine antibody mAb012 (antibody, V domains shown)
VH: EVQLQQSGPVLLKPGASVKMSCKASGYTFTDYYMNWVKQSHGKSLEWIGVINPYNGESSNNQKFKGKATMTVDKSSSTAYMELNSLTSEDSAVYYCARCYGYGYYFDYWGQGTTLSVAS
VL: B1 VL with V10I, L11M, S26T, S30T, A54T, A59P, S92T, N93Y, W95Y
notes: as for B1
Take B2: the concentration giving a half-maximal response (EC50) in assay [1] is 4.74 nM; in assay [2], 8.65 nM; in [3], 2.8 nM. For the same molecule, the Maximum binding signal in [1] worked out at 30000; in [2], 20800; in assay [3], 24400.

B3: humanized antibody cAb12-VH1-QG&S-VL3 (antibody, human IgG4 S228P, kappa, V domains shown)
VH: QVQLVQSGAEVKKPGASVKVSCKASGYTFTDYYMNWVRQAPGQGLEWMGVINPYQGESSNNQKFKGRVTMTRDTSTSTVYMELSSLRSEDTAVYYCARSYGYGYYFDYWGQGTTVTVSS
VL: AIQLTQSPSSLSASVGDRVTITCSATSSVTYMHWYQQKPGKAPKRWIYDTSKLTSGVPPRFSGSGSGTDYTLTISSLQPEDFATYYCQQWSTYPYTFGGGTKLEIKR
notes: Humanized from mAb012
Turning to B3, the EC50 in assay [4] was determined as 10.5 nM; in assay [5], 14 nM; in assay [6] it was 8.1 nM. In addition, the Maximum binding signal in assay [4] turned out to be 420000; in [5], 98800; in [6] it was 269000.

B4: humanized antibody cAb12-VH3-QG&S-VL3 (antibody, human IgG4 S228P, kappa, V domains shown)
VH: B3 VH with R38K, M48I, V68A, R72V, T74K
VL: B3 VL
notes: Humanized from mAb012
Turning to B4, the figures for the EC50 in [4], in [5] and in assay [6] were 6.5 nM, 15 nM and 9.2 nM, respectively. The values for the Maximum binding signal in assay [4], in [5] and in assay [6] were 445000, 135000 and 303000, respectively.

B5: humanized antibody cAb21-VH2-VL2 (antibody, human IgG4 S228P, kappa, V domains shown)
VH: QVQLVQSGAEVKKPGASVKVSCKASGYTFSNYWMQWVRQAPGQGLEWIGEIDPADSYTAYSQKFKGRATMTVDTSTSTVYMELSSLRSEDTAVYYCARRNLLRSGDYWGQGTLVTVSS
VL: AIQLTQSPSSLSASVGDRVTITCSASSGITYIHWYQQKPGKAPKRWIYDSSKLASGVPSRFSGSGSGTDYTLTISSLQPEDFATYYCQQWSGNPPTFGQGTKLEIKR
notes: Humanized from mAb021
Take B5: the values for the half-maximal effective concentration (EC50) in assay [4], in assay [5] and in assay [6] were 10.4 nM, 11.9 nM and 9.3 nM, respectively. In addition, the Maximum binding signal in assay [4] amounted to 402000; in [5], 175000; in assay [6] it was 313000.

B6: humanized antibody cAb21-VH1-VL3 (antibody, human IgG4 S228P, kappa, V domains shown)
VH: B5 VH with I48M, A68V, V72R
VL: B5 VL with S59A
notes: Humanized from mAb021
As to B6, the concentration for a half-maximal effect (EC50) in assay [4] is 8.7 nM; in assay [5] it was 10.4 nM; in assay [6], 7.8 nM. In addition, the Maximum binding signal in assay [4] is 398000; in assay [5], 185000; in assay [6], 308000.

B7: hAb01_G4P_V1 (antibody, human IgG4 S228P, kappa)
heavy: EVQLVESGGGLVKPGGSLRLSCAASGFTLSDYYIYWVRQAPGKGLEWVATISDAVIYTYYADSVKGRFTISRDNAKNSLYLQMNSLRAEDTAVYFCARAYGSSEVMDYWGQGTLVTVSSASTKGPSVFPLAPCSRSTSESTAALGCLVKDYFPEPVTVSWNSGALTSGVHTFPAVLQSSGLYSLSSVVTVPSSSLGTKTYTCNVDHKPSNTKVDKRVESKYGPPCPPCPAPEFLGGPSVFLFPPKPKDTLYITREPEVTCVVVDVSQEDPEVQFNWYVDGVEVHNAKTKPREEQFNSTYRVVSVLTVLHQDWLNGKEYKCKVSNKGLPSSIEKTISKAKGQPREPQVYTLPPSQEEMTKNQVSLTCLVKGFYPSDIAVEWESNGQPENNYKTTPPVLDSDGSFFLYSRLTVDKSRWQEGNVFSCSVMHEALHNHYTQKSLSLSLGK
light: EIVLTQSPATLSLSPGERATLSCSASSSVSYMHWYQQKPGQAPKRWIYDTSKLASGVPARFSGSGSGTDYTLTISSLEPEDFAVYYCQQWSSNPWTFGGGTKLEIKRTVAAPSVFIFPPSDEQLKSGTASVVCLLNNFYPREAKVQWKVDNALQSGNSQESVTEQDSKDSTYSLSSTLTLSKADYEKHKVYACEVTHQGLSSPVTKSFNRGEC
notes: also called hAb01_G4_V1
As usually defined, the Kd is a measure of binding affinity in units of concentration. With B7, in [7], the “IC50 (nM), cAMP in 293-human TSHR cells activated by Tab01” value is 2.95 nM; the “IC50 (nM), cAMP in 293-human TSHR cells activated by Tab02” value came out at 2.74 nM; the “Maximum inhibition rate (%), cAMP in 293-human TSHR cells activated by Tab01” value turned out to be 105%; the “Maximum inhibition rate (%), cAMP in 293-human TSHR cells activated by Tab02” value came to 100%. Further, in assay [8], the half-maximal effective concentration (EC50) turned out to be 5.82 nM and the Max_MFI turned out to be 282000. In [9], the midpoint of the response, the EC50, lay at 2.35 nM and the Max_MFI was 138000. In assay [10], this molecule yielded an EC50 of 2.77 nM and a Max_MFI of 190000. Further, in assay [11], the affinity, expressed as Kd, was 119 nM and the “Response value (RU)” value is 73.1 RU.

B8: hAb01_G1 (antibody, human IgG1, kappa)
heavy: not shown
light: B7 light
notes: Same variable regions as hAb01_G4P, constant region subtype hIgG1
As to B8, in [11], the Kd amounted to 189 nM and the “Response value (RU)” value amounted to 60.7 RU.

B9: humanized antibody cAb01-VH3-DA-VL2 (antibody, human IgG4 S228P, kappa, V domains shown)
VH: B1 VH with K19R, T40A, E42G, G54A, N78S, S84N, K87R, S88A, M93V, S114L
VL: EIVLTQSPATLSLSPGERATLSCSASSSVSYMHWYQQKPGQAPRRWIYDTSKLASGIPARFSGSGSGTDYTLTISSLEPEDFAVYYCQQWSSNPWTFGGGTKLEIKR
notes: Humanized from mAb001
Consider B9, for which, in assay [12], the “IC50(nM), cAMP in 293-human TSHR cells activated by Tab01 (30 nM)” value came out at 0.29 nM; the “IC50(nM), cAMP in 293-human TSHR cells activated by Tab02 (6.5 nM)” value was 0.23 nM; the “Inhibition rate (%), cAMP in 293-human TSHR cells activated by Tab01 (30 nM)” value turned out to be 84%; the “Inhibition rate (%), cAMP in 293-human TSHR cells activated by Tab02 (6.5 nM)” value stood at 82.8%. In assay [13], this molecule came in with a half-maximal effective concentration (EC50) of 2.09 nM and a Maximum binding signal of 129000. Besides, in assay [14], it took 2.29 nM to reach a half-maximal effect (EC50) and the Maximum binding signal worked out at 225000.

B10: humanized antibody cAb01-VH1-DA-VL2 (antibody, human IgG4 S228P, kappa, V domains shown)
VH: EVQLVESGGGLVKPGGSLRLSCAASGFTLSDYYIYWVRQAPGKGLEWVSTISDAVIYTYYADSVKGRFTISRDNAKNSLYLQMNSLRAEDTAVYYCARAYGSSEVMDYWGQGTLVTVSS
VL: B9 VL
notes: Humanized from mAb001
Turning to B10, in assay [12], the “IC50(nM), cAMP in 293-human TSHR cells activated by Tab01 (30 nM)” value was 1.3 nM; the “IC50(nM), cAMP in 293-human TSHR cells activated by Tab02 (6.5 nM)” value was determined as 0.91 nM; the “Inhibition rate (%), cAMP in 293-human TSHR cells activated by Tab01 (30 nM)” value is 85.6%; the “Inhibition rate (%), cAMP in 293-human TSHR cells activated by Tab02 (6.5 nM)” value amounted to 87.4%. Further, in assay [13], the 50% effective concentration (EC50) amounted to 2.4 nM and the Maximum binding signal was found to be 113000. In assay [14], this molecule displayed an EC50 of 2.19 nM and a Maximum binding signal of 187000.

B11: murine antibody mAb021 (antibody, V domains shown)
VH: QVQLQQPGAEHVQPGASVKLSCKASGYTFSNYWMQWVRQRPGQGLDWIGEIDPADSYTAYSQKFKGKATLTVDTSSTTAYMQLSSLTSEDSAVYYCARRNLLRSGDYWGQGTSLTVSS
VL: QIVLTQSPAIMSASPGEKVTMTCSASSGITYIHWYQQKSGTSPKRWIYDSSKLASGVPARFSGSGSGTSYSLTISSMEAEDAATYYCQQWSGNPPTFGAGTKLEVK
notes: as for B1
As for B11, the 50% effective concentration (EC50) in [1] came to 3.5 nM; in [2], 10.3 nM; in [3], 4.5 nM. For the same molecule, the results for the Maximum binding signal in assay [1], in assay [2] and in assay [3] were 52000, 31600 and 42400, respectively.
